The subject of series [1] is ADGRF1. As to the kind of experiment: Identification of phospholipid ligands by LC–MS/MS. The class given is binding, human. The protocol: The identification of phospholipids specifically bound to ADGRF1 was performed as previously described[33],[50] with minor modifications. In brief, ADGRF1 and control ADGRD1 protein were reduced with 5 mM TCEP at 25 °C for 30 min and alkylated with 20 mM idoacetamide at 25 °C for 30 min. Then the protein samples were digested with trypsin (Promega) at an enzyme-to-protein ratio of 1:50 (w/w) at 37 °C overnight. The digested proteins were dried in a vacuum concentrator and then extracted with 400 μl of ice-cold methanol:water (9:1, v/v) by vortex and sonication. After centrifugation at 12,000g for 15 min at 4 °C, the supernatants were collected and lyophilized under vacuum. The lipid extracts were resuspended in methanol:chloroform (9:1, v/v) to an equivalent concentration of 2 μM. Samples were analysed on a Q Exactive mass spectrometer (Thermo Fisher Scientific) operating in the positive ion mode coupled to a Waters Acquity UPLC system (Waters). […] The specificity of lipid binding to ADGRF1 was assessed by the ratio of EIC peak areas for each lipid in the ADGRF1 versus the control sample. […]

For series [2], the system named is ADGRF1. Particulars: cited from earlier work.
Series [3] relates to neurogenesis, neuritogenesis and synaptogenesis. The conditions noted are these: ref [35]; cited from earlier work.
In the next series the test system is ADGRD1. As to the kind of experiment: Cell-surface expression by flow cytometry, ADGRD1. It is filed as cell-based, human. Particulars: ADGRD1 constructs (pD1 Gs part of table), anti-Flag antibody, three independent measurements in duplicate. The protocol:
The wild-type ADGRD1 and ADGRF1 and mutants used in functional studies were constructed into a pTT5 vector with a Flag tag at the N terminus for receptor expression measurement. The basal activity of ADGRD1 and ADGRF1 in mediating Gs signalling was measured by a cAMP accumulation assay using a LANCE Ultra cAMP detection kit (PerkinElmer) following the manufacturer’s instruction. In brief, 2 ml HEK293F cells (Invitrogen; cells were routinely tested for mycoplasma contamination) at a density of 1.2 × 10^6 cells per ml were transiently transfected with 2,000 ng plasmid of the wild-type or mutant receptor and cultured at 37 °C for 48 h with 5% CO2 atmosphere in a shaker shaking at 220 rpm. After collection, the cell-surface expression of the receptors was measured by incubating 10 μl cells with 15 μl monoclonal anti-Flag M2-FITC antibody (Sigma; 1:120 diluted in TBS supplemented with 4% BSA and 20% viability staining solution 7-AAD (Invitrogen)) at 4 °C for 20 min. After incubation, 175 μl TBS buffer was added and the fluorescent signal was measured using a flow cytometry reader (Guava easyCyte HT, Millipore).

For series [4], the target named is T1, ADGRD1 (GPR133), residues T545–T827 (ADGRD1-construct) (human) (UniProt Q6QNK2).
T1 sequence: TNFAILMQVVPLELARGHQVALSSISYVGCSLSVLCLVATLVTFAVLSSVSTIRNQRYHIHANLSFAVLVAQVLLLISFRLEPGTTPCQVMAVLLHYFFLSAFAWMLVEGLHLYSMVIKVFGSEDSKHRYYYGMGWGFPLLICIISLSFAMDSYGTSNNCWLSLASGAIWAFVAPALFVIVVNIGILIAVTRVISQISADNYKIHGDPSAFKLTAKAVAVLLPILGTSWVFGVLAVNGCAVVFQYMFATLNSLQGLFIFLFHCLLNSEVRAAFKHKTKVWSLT

Series [5] concerns the target T2, ADGRF1 (GPR110), residues V251–K860 (ADGRF1-construct 1) (human) (UniProt Q5T601).
T2 sequence: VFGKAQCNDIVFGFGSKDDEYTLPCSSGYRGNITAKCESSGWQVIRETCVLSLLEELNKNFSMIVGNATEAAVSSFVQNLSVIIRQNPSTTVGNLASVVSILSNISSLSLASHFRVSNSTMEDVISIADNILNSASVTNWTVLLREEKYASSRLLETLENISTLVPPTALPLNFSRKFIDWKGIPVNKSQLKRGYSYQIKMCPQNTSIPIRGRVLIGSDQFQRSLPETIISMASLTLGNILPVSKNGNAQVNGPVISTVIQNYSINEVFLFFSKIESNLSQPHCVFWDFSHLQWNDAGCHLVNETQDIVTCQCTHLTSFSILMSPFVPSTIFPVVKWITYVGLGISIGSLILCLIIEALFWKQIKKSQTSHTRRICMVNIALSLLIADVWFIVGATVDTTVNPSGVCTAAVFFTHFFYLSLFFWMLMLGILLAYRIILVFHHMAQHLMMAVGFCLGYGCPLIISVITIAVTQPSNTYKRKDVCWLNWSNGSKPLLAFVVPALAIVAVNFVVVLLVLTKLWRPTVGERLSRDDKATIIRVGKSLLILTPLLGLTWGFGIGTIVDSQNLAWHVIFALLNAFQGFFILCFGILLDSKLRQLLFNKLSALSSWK

Positions count from the first letter of the chain named.

With `CCCCCCCCCCCCCCCC(=O)OC[C@@H](O)COP(=O)([O-])OCC[N+](C)(C)C` [LPC 16:0], the “specific binding to ADGRF1 (lipidomics)” value in the series with ADGRF1 [1] (ADGRD1 as control, specific binder: mean EIC ratio > 2 and P < 0.05, n = 3) is “bound specifically to ADGRF1”. The “EIC peak ratio, ADGRF1 versus ADGRD1 (mean)” value in the series with ADGRF1 [1] (ADGRD1 protein as control, methanol:water lipid extract, P < 0.05, three independent experiments) is greater than 2.

In the case of `CC/C=C\C/C=C\C/C=C\C/C=C\C/C=C\C/C=C\CCC(=O)NCCO` [synaptamide, N-docosahexaenoylethanolamine], in the series on ADGRF1 [2] (believed to act through the extracellular GAIN domain, ref [36]), the “stalk dependence of ADGRF1 activation” value is given as “activates the receptor in a stalk-independent manner”. Moreover, in the series with ADGRF1 [2] (ref [35]), the “agonism at ADGRF1” value is given as “endogenous small-molecule agonist for ADGRF1”. In series [3], the “neurogenesis, neuritogenesis and synaptogenesis” value was “promotes neurogenesis, neuritogenesis and synaptogenesis”.

B1: F716^5.36bA (protein, UniProt Q6QNK2 26-874, looked up, variant F716A)
Adhesion G-protein coupled …: VYSRSQDHPGFQVLASASHYWPLENVDGIHELQDTTGDIVEGKVNKGIYLKEEKGVTLLYYGRYNSSCISKPEQCGPEGVTFSFFWKTQGEQSRPIPSAYGGQVISNGFKVCSSGGRGSVELYTRDNSMTWEASFSPPGPYWTHVLFTWKSKEGLKVYVNGTLSTSDPSGKVSRDYGESNVNLVIGSEQDQAKCYENGAFDEFIIWERALTPDEIAMYFTAAIGKHALLSSTLPSLFMTSTASPVMPTDAYHPIITNLTEERKTFQSPGVILSYLQNVSLSLPSKSLSEQTALNLTKTFLKAVGEILLLPGWIALSEDSAVVLSLIDTIDTVMGHVSSNLHGSTPQVTVEGSSAMAEFSVAKILPKTVNSSHYRFPAHGQSFIQIPHEAFHRHAWSTVVGLLYHSMHYYLNNIWPAHTKIAEAMHHQDCLLFATSHLISLEVSPPPTLSQNLSGSPLITVHLKHRLTRKQHSEATNSSNRVFVYCAFLDFSSGEGVWSNHGCALTRGNLTYSVCRCTHLTNFAILMQVVPLELARGHQVALSSISYVGCSLSVLCLVATLVTFAVLSSVSTIRNQRYHIHANLSFAVLVAQVLLLISFRLEPGTTPCQVMAVLLHYFFLSAFAWMLVEGLHLYSMVIKVFGSEDSKHRYYYGMGWGFPLLICIISLSFAMDSYGTSNNCWLSLASGAIWAAVAPALFVIVVNIGILIAVTRVISQISADNYKIHGDPSAFKLTAKAVAVLLPILGTSWVFGVLAVNGCAVVFQYMFATLNSLQGLFIFLFHCLLNSEVRAAFKHKTKVWSLTSSSARTSNAKPFHSDLMNGTRPGMASTKLSPWDKSSHSAHRVDLSAV
B1: in the series with ADGRD1, the “Cell-surface expression (% of WT)” value was 98 ± 3 % of WT.

B2: H605^2.50bA (protein, UniProt Q6QNK2 26-874, looked up, variant H605A)
Adhesion G-protein coupled …: B1 Adhesion G-protein coupled … with H580A, A691F
Take B2: the “Cell-surface expression (% of WT)” value in the series on ADGRD1 is listed as 102 ± 7 % of WT.

B3: H656^3.53bA (protein, UniProt Q6QNK2 26-874, looked up, variant H656A)
Adhesion G-protein coupled …: B1 Adhesion G-protein coupled … with H631A, A691F
On to B3, for which the “Cell-surface expression (% of WT)” value in the series with ADGRD1 was 86 ± 10 % of WT.

B4: Q798^7.49bA (protein, UniProt Q6QNK2 26-874, looked up, variant Q798A)
Adhesion G-protein coupled …: B1 Adhesion G-protein coupled … with A691F, Q773A
For the molecule B4, the “Cell-surface expression (% of WT)” value with ADGRD1 is reported as 96 ± 18 % of WT.

B5: W773^6.53bA (protein, UniProt Q6QNK2 26-874, looked up, variant W773A)
Adhesion G-protein coupled …: B1 Adhesion G-protein coupled … with A691F, W748A
For the molecule B5, in the series with ADGRD1, the “Cell-surface expression (% of WT)” value is given as 69 ± 2 % of WT.

B6: K760^6.40bA (protein, UniProt Q6QNK2 26-874, looked up, variant K760A)
Adhesion G-protein coupled …: B1 Adhesion G-protein coupled … with A691F, K735A
For B6, the “Cell-surface expression (% of WT)” value with ADGRD1 is 126 ± 21 % of WT.

B7: synthetic stalk peptide of ADGRF1 (pF1) (peptide)
peptide: TSFSILMSPFVP
Turning to B7, in series [4], the fold decrease in G protein activation of wild-type ADGRD1 in HEK293F cells (BRET assay with TRUPATH biosensors): potency of pF1 against that of pD1 was 59 fold.

B8: synthetic stalk peptide of ADGRD1 (pD1) (peptide)
peptide: TNFAILMQVVPLE
B8 yielded a G protein activation of wild-type ADGRF1 in HEK293F cells (BRET assay with TRUPATH biosensors): EC50 of pD1 against that of pF1 in series [5] of 2 fold.

Source of the values: publication PMC9046087, “Structural basis of tethered agonism of the adhesion GPCRs ADGRD1 and ADGRF1” (Nature, 2022).
